Data as given in the supplement of paper PMC9170038.

System: K4 kissing-loop RNA reporter
Test: apparent KD of K4 kissing-loop reporter; higher = weaker reporter binding
Details: Eterna round: R107
Method: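 RNA-MaP round R107: designed RNA switches with theophylline, tryptophan, arginine or FMN aptamers are transcribed on-chip within common flanks. They are titrated with a labelled K4 kissing-loop RNA reporter in RNA-MaP buffer (100 mM Tris pH 7.5, 80 mM KCl, 4 mM MgCl2), without ligand or with the indicated ligand. Median apparent KD per design.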

[1] = input ligand: theophylline 20 uM
[2] = input ligand: tryptophan 2.4 mM
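Also: bound reporter read as fluorescence of individual clusters on recovered sequencing chips by microscopy, with normalized cluster intensities fitted with a binding model.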

Row | Sequence | apparent KD of K4 kissing-loop reporter (input ligand: FMN 200 uM) | apparent KD of K4 kissing-loop reporter (input ligand: arginine 13.2 mM) | apparent KD of K4 kissing-loop reporter (input ligand: none) | apparent KD of K4 kissing-loop reporter [1] | apparent KD of K4 kissing-loop reporter [2]
1 | AAGCCCAGUGAUGUUGGAAGCGCGUACGAUACCAGCGAAUCGGAACGCCCUUGGCAGCGUACAGAGUUGGCGGAAGAUAGGACAG [theeternabot_sameState_KL_Theo_A_14] | 548 nM | 507 nM | 643 nM | 637 nM | 527 nM
2 | AAGCUCAGCGUGACUCGAUAAGAGUCACAACGAGGACCGGUACGGCCGCCACUCGAAAUAAGGGAGUGAUGUUCUCGCUGAGCAA [#SwitchBubble 5 #StaticStem #K4Late] | 348 nM | 134 nM | 291 nM | 364 nM | 587 nM
3 | AAGGAUCAGAGAGUGAUGUUCUCUAAUAAACGAGGACCGGUACGGCCGCCACUCGAAUAAGAUCCAGUCCUACGAAAAGUAGGAC [Omei inspired 6] | 431 nM | 338 nM | 485 nM | 613 nM | 132 nM
4 | AAGGCCACGAGAAGGAGCGUGUUGUGGAGUGAUGUUCCAUUGUAGACCUAAGGUCUGCAAGCACAGGUAGGUCGCUCGUGGUCAA [whbob_SS_Arginine_B_2t149] | 127 nM | 123 nM | 139 nM | 138 nM | 127 nM
5 | AAGGGCCGGGCGGCCGCCACUGGUCGUGUACACGUACUAACCAGUGAUGUUGGUAUAGUACGCGACAGGACCGGGCCCGGCCCAA [Exclusion - Tryptophan B (Freestyle 30)] | 405 nM | 359 nM | 445 nM | 297 nM | 236 nM
6 | AAGGGCGGGACUUUCUCGCCGGAUAGAGAUACCAGCCCAGCAAAGGGCCCUUGGCAGCUCACUGACCUCAGUGAUGUUGAGGUUC [Soerrainat] | 295 nM | 240 nM | 242 nM | 199 nM | 266 nM
7 | AAGGUAUCUAGAUACAUUACUGAACUAGAUACCAGCAUCGAAAGAUGCCCUUGGCAGCUAGCAGUGAUGUUGCUAGCAAUAAGAA [Design3] | 121 nM | 109 nM | 113 nM | 112 nM | 119 nM
8 | AAGGUUGUGCAUGGGAGUGAUGUUCCCAAGCAGGAUAUCGCUCACGCGAGAAGGGCUUGCACAACCGCUCAAGAAACUUGAGCAA [Omei KL FMN A SS C v6] | 129 nM | 179 nM | 195 nM | 200 nM | 188 nM
9 | AAGGUUGUGCAUGGGAGUGAUGUUCCCACGCAGGAUAUCGCUCUCGCGAGAAGGGCGAGCACAACCGCUCAAGAAACUUGAGCAA [Omei KL FMN A SS C v3] | 129 nM | 320 nM | 480 nM | 402 nM | 388 nM
10 | AAGGUUGUGCAUGGGAGUGAUGUUCCCAGGCAGGAUAUCGCUCACGCGAGAAGGGCUAGCACAACCGCUCAAGAAACUUGAGCAA [Omei KL FMN A SS C v4] | 117 nM | 97.1 nM | 113 nM | 116 nM | 94.5 nM
11 | AAGUAGCUCUCGGCCGCCACUCCUCAGUGAUGUUGAGAUAUUAAGAGACAAUUGUCUCAUAUAAAGAGGACCGGGAGAGCUACAA [AK5 SS Tryptophan B] | 445 nM | 384 nM | 439 nM | 460 nM | 133 nM
12 | AAGUGAUGUUGUAGUGAUGUUGUGAUGUUGCAGGAUAUAUAGUGAUGUAGAAGGGUAAGUACUGAUGUUGUUAGUAAGUGAUGUU [tvvbmullin] | 106 nM | 50.1 nM | 89.9 nM | 76.6 nM | 77.8 nM
13 | AAGUGAUGUUGUAGUGAUGUUGUGAUGUUGCAGGAUAUAUAGUGAUGUAGAAGGGUAAGUACUGAUUUUGUUUGUGAGUGAUGUU [zqqzzrmullin] | 92.8 nM | 40.1 nM | 73.8 nM | 61.1 nM | 67.8 nM
14 | AAGUGAUGUUGUAGUGAUGUUGUGAUGUUGCAGGAUAUAUAGUGAUGUAGAAGGGUAAGUACUGAUUUUUUUUUUGAGUGAUGUU [ccbyzrmullin] | 96.4 nM | 43 nM | 74.5 nM | 53.9 nM | 73.8 nM
15 | AAGUGAUGUUGUAGUGAUGUUGUGAUGUUGCAGGAUAUAUAGUGAUGUAGAAGGGUAUGUACUGAUUUUUUUUUUGAGUGAUGUU [awaqmullin] | 99.2 nM | 43 nM | 77.3 nM | 58.8 nM | 79.9 nM
16 | AAGUGCCUCAAGAGGCAGUAUCUGCCUCAACGAGGACCGGUACGGCCGCCACUCGAAUAAUAGAGUGAUGUUCUAAGAGGCACAA [AK1.5 SS Tryptophan A] | 461 nM | 284 nM | 483 nM | 261 nM | 432 nM
17 | AAGUGUCAUUAGACACACUGAUGUAUAAACUAGGAUAUGCUGAUAAGCAGAAGGAGUGAUGUUCCUUUCAUCAUCAGAAUUAAAU [KL-XFMN-A2] | 167 nM | 113 nM | 110 nM | 127 nM | 94.5 nM
18 | AAGUGUGUGGCGGCCGCCACUAGAAUCCAGUGAUGUUGGAAUAAUCAAAUAAAUAAUAAUAAACAUAGGACCGGGCCAUAUAGAA [Same State - Tryptophan B (Freestyle 1)] | 145 nM | 140 nM | 145 nM | 157 nM | 139 nM
19 | AAGUGUGUGGCGGCCGCCACUAGAAUCCAGUGAUGUUGGAGAUAUCAGGUAACUGAUAUCCAACAUAGGACCGGGCCAUAUAGAA [Same State - Tryptophan B (Freestyle 11)] | 152 nM | 104 nM | 144 nM | 108 nM | 91.9 nM
20 | AAGUGUGUGGCGGCCGCCACUAGUAUCCAGUGAUGUUGGAGAUAUCACGUAAGUGAUAUCCUACAUAGGACCGGGCCAUAUAGAA [Same State - Tryptophan B (Freestyle 20)] | 392 nM | 391 nM | 337 nM | 540 nM | 510 nM
21 | AAGUGUUCUAGUGAUACCAGACAAUUUUAUUUUUUCUUUUUUGCUAAGUGAUGUUUAGCAGUCCCUUGGCAGCACUAUUUCACUA [JR_SSTheophyB_Sub018] | 129 nM | 109 nM | 106 nM | 147 nM | 128 nM
22 | AAGUUGAACUGAAGGAGCGAGAAAUAGAAUGUAAGAAUAUAUGCUAGUGAUGUUAGAAAUUCUCAGGUAGGUCGCAGUAAGAUUU [V1.1] | 277 nM | 328 nM | 330 nM | 558 nM | 192 nM

Row | Sequence | apparent KD of K4 kissing-loop reporter (input ligand: FMN 200 uM) | apparent KD of K4 kissing-loop reporter (input ligand: arginine 13.2 mM) | apparent KD of K4 kissing-loop reporter (input ligand: none) | apparent KD of K4 kissing-loop reporter [1] | apparent KD of K4 kissing-loop reporter [2]
23 | AAUAAAAUCACGGCCGCCACUAAUGCUAGUAUUAGCAGUGAUGUUGCUAUGUAUAUUUUAUUUAAUAGGACCGGGUGAAUAUUUA [#23 K4 Tryptophan B Exclusion] | 332 nM | 294 nM | 346 nM | 308 nM | 224 nM
24 | AAUAAAAUCACGGCCGCCACUGAAUAAUUGGUAAGUAGUGAUGUUACUUUACAUAUCUUAUUUAACAGGACCGGGUGAAUAUUUA [JR_ExcTryptoB_Sub008] | 134 nM | 92.4 nM | 116 nM | 103 nM | 131 nM
25 | AAUAAAAUCACGGCCGCCACUGAAUAAUUGUUAAGUAGUGAUGUUACUUUACUUUUCUUAGUUAACAGGACCGGGUGAAUAUUUA [#18 K4 Tryptophan B Exclusion] | 113 nM | 101 nM | 107 nM | 101 nM | 190 nM
26 | AAUAAAAUCACGGCCGCCACUGAUAUCCAUAUUAGGAGUGAUGUUCCUUUGACUAUAUAAUUUUACAGGACCGGGUGAAUAUUUA [JR_Nu_SSTryptoB_Sub027] | 104 nM | 143 nM | 120 nM | 131 nM | 90.8 nM
27 | AAUAAAAUCACGGCCGCCACUGAUGUUAAUAUUAGCAGUGAUGUUGCUAUGUCGUUUUUAUUUAACAGGACCGGGUGAAUAUUUA [JR_ExcTryptoB_Sub013] | 183 nM | 182 nM | 171 nM | 188 nM | 154 nM
28 | AAUAAGCGUGGAAGGAGCGUCGUCCAGUGAUGUUGGAGUUAGAUACCAGUGAUGUUGGUUAGGCAGGUAGGUCGCCGCAAAGCUU [Exclusion Arginine B Gf 7] | 96.8 nM | 67.6 nM | 90.8 nM | 86.3 nM | 81 nM
29 | AAUACACUGUCGGCCGCCACUCUCGGCUGCAGUGUGCAGGGACAUGAGUGAUGUUUAUGUCGCGUGAGGACCGGGACUGAUGUAU [KL-SSTryp-B1 #analogue] | 326 nM | 257 nM | 312 nM | 326 nM | 209 nM
30 | AAUACUAUCAGAAGGAGCGUGGAAUAUUCAUCUGUAUCUAAUACGAGUGAUGUUCGUAAUUCACAGGUAGGUCGCUGAUUAAUAA [whbob_Ex_Arginine_B_2th157] | 274 nM | 275 nM | 253 nM | 266 nM | 231 nM
31 | AAUAGCCGUACUAGUGAUGUUAGUGUGGAUACCAGUUCAUGGACGAACCCUUGGCAGCCAUCAAAUAUAUAUGAGGGAUCAUCAC [theeternabot_exclusion_KL_Theo_A_47] | 295 nM | 268 nM | 309 nM | 410 nM | 320 nM
32 | AAUAUACAGGGAAGGAGCGUCGUCCAGUGAUGUUGGAGUUAAAUACCAGUGAUGUUGGUUAGGCAGGUAGGUCGCCCUAAAGUAU [KL-XARG-B15] | 93.6 nM | 68.3 nM | 86.7 nM | 85.1 nM | 73.9 nM
33 | AAUAUACAUUAAUUAAUUAAAGGUUCAGAAGGAGCGUGAAUUAACACAGGUAGGUCGCUGAGCGAGUGAUGUUCGCUAUAUACUA [JR_ExcArginiA_Sub004] | 61.4 nM | 73.1 nM | 69.5 nM | 79.9 nM | 58.1 nM
34 | AAUAUAGUGAUGUUAUAUAAGAAGGAGUUACGAGGACCGGUACGGCCGCCACUCGAAACGAGUGAUGAUUUGGGAGAUUGGGUUG [SSTryptA.N] | 484 nM | 347 nM | 489 nM | 433 nM | 370 nM
35 | AAUAUAUAGUGAAGGAGCGCGAUAAGCAGUGAUGUUGCUUAGCUAUUAUUCAUUAUUUUUACGCAGGUAGGUCGCACUAUAUAUA [JR_ExcArginiB_Sub014] | 138 nM | 128 nM | 144 nM | 133 nM | 139 nM
36 | AAUAUAUAGUGAAGGAGCGCGUAUAGCAGUGAUGUUGCUUACUUAUUAUUAUAUUUUUUGACGCAGGUAGGUCGCACUAUAUAUA [JR_ExcArginiB_Sub021] | 242 nM | 181 nM | 268 nM | 227 nM | 215 nM
37 | AAUAUAUUGUGAAGGAGCGCGAAAAGCAGUGAUGUUGCUUACUUACAAUUUAUUUUUUACACGCAGGUAGGUCGCACAAUAUAUA [JR_SSArginiB_Sub015] | 234 nM | 223 nM | 269 nM | 280 nM | 220 nM
38 | AAUCCUUACGGAGUGAUGUUCCGUAGCGAUACCAGCCAUUGCGAUGGCCCUUGGCAGCGCUAUAAGCAUUGCUAUUAAGGGCCAA [Theo A Ex t7a] | 134 nM | 107 nM | 124 nM | 121 nM | 126 nM
39 | AAUCUCCUAGUGAUGUUAGGUUUAAGGGAAGGAGCGAGGUAAUACUCAGGUAGGUCGCCCACAUGCAUUAAUAAAUCAAUUUAAU | 102 nM | 73.8 nM | 91 nM | 98.8 nM | 84.2 nM
40 | AAUGCAUAGUGAAGGAGCGCGAUAAGCAGUGAUGUUGCUUAGCUAUUAUUCAUUAUUUUAACGCAGGUAGGUCGCACUUUGCAUA [JR_ExcArginiB_Sub015] | 131 nM | 127 nM | 128 nM | 151 nM | 128 nM
41 | AAUGCAUAGUGAAGGAGCGCGAUAAGCAGUGAUGUUGCUUAGUUAUAAGUGUUUAUUUAUUCGCAGGUAGGUCGCACUUUGCAUA [JR_ExcArginiB_Sub019] | 147 nM | 111 nM | 124 nM | 117 nM | 132 nM
42 | AAUGCAUAGUGAAGGAGCGCGAUAAGCAGUGAUGUUGCUUAGUUAUUAGUGUUUAUUUAUACGCAGGUAGGUCGCACUUUGCAUA [JR_ExcArginiB_Sub018] | 115 nM | 103 nM | 109 nM | 105 nM | 107 nM
43 | AAUGCAUUGUGAAGGAGCGCGAUAGGCAGUGAUGUUGCUUACAUUUUAUUAUGUUUUAAAACGCAGGUAGGUCGCACUUUGCAUA [JR_Nu_SSArginiB_Sub030] | 187 nM | 163 nM | 183 nM | 193 nM | 162 nM
